From patent US20120107330A1 (published 2012)
Positions count from the first letter of the chain named.

T1: human TNFR1 (recombinant, R&D Systems cat no. 636-R1/CF, biotinylated) (human, UniProt P19438 30-211, limits assumed, biotinylated with EZ-Link NHS-LC-LC-biotin)
T1 construct: it is not tied to the BIAcore reagent; also called p55; hTNFR1
T1 sequence (looked up): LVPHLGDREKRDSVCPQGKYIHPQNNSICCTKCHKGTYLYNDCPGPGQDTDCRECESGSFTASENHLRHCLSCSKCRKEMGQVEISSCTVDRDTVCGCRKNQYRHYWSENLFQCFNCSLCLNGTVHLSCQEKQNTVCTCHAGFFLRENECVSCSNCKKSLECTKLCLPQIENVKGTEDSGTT

T2: human TNFR1 on MRC-5 cells (human, UniProt P19438 30-455)
T2 sequence (looked up): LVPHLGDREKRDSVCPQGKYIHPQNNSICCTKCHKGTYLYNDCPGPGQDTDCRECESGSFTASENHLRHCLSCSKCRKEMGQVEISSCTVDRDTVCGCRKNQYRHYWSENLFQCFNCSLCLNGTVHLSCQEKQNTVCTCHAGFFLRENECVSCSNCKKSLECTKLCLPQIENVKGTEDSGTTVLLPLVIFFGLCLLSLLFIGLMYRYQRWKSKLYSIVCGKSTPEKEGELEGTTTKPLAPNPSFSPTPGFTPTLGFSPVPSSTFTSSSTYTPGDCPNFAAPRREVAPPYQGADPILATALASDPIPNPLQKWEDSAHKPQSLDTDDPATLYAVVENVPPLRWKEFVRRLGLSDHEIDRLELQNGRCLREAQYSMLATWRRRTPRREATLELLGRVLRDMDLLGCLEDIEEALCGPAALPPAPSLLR

T3: Cynomologus monkey TNFR1 on CYNOM-K1 cells (Cynomolgus monkey, UniProt Q2PFV5 30-455)
T3 sequence: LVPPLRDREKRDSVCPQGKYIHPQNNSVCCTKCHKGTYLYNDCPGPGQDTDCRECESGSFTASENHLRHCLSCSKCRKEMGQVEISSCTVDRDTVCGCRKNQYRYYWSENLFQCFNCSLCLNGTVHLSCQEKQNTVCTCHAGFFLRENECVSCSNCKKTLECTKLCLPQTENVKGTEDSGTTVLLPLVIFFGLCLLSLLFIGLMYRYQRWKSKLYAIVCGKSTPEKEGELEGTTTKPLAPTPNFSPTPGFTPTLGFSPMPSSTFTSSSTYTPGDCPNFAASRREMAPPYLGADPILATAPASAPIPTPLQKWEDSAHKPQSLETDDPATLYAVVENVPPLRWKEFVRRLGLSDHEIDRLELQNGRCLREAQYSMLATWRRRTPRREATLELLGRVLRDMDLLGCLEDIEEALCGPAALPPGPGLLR

T4: mouse TNFR1 on L929 cells (mouse, UniProt P25118 30-454)
T4 sequence (looked up): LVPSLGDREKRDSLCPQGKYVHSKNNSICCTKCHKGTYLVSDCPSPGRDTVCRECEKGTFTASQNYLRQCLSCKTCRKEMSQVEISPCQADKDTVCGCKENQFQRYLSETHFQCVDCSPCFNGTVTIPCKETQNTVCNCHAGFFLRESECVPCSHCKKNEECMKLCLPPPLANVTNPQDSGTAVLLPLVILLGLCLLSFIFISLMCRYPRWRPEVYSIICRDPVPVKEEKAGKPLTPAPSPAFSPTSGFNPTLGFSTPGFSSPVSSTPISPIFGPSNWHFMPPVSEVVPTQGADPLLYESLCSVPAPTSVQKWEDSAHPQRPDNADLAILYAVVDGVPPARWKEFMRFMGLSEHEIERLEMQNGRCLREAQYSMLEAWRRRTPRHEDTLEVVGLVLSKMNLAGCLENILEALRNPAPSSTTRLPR

T5: mouse TNFR1 (recombinant, R&D Systems cat no. 425-R1-050/CF, biotinylated) (mouse, UniProt P25118 22-212, biotinylated with EZ-Link NHS-LC-LC-biotin)
T5 construct: also called murine TNFR1; biotinylated mouse TNFR1
T5 sequence (looked up): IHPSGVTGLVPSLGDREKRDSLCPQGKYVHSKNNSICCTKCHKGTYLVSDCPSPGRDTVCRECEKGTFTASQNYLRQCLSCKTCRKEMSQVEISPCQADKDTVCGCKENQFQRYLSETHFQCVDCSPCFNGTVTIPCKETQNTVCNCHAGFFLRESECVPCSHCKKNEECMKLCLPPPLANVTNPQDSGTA

B1: DOM1h-574-72 (other)
VH: EVQLLESGGGLVQPGGSLRLSCAASGFTFVKYSMGWVRQAPGKGLEWVSQISNTADRTYYAHSVKGRFTISRDNSKNTLYLQMNSLRAEDTAVYYCAIYTGRWVPFEYWGQGTLVTVSS
notes: VH dAb; expressed in E. coli, purified on Protein A
B2: DOM1h-574-155 (other)
VH: B1 VH with V30L, N53D
notes: VH dAb
B3: DOM1h-574-133 (other)
VH: B1 VH with N53D, A61D, V104E, E107V
notes: VH dAb
B4: DOM1h-574-135 (other)
VH: B1 VH with N53D, A61T
notes: VH dAb
B5: DOM1h-574-138 (other)
VH: B1 VH with V30F, N53D, V104A
notes: VH dAb
B6: DMS0184 (bispecific antibody)
chain: EVQLLESGGGLVQPGGSLRLSCAASGFTFVKYSMGWVRQAPGKGPEWVSQISNTGDRTYYADSVKGRFTISRDNSKNTLYLQMNSLRAEDTAVYYCAIYTGRWEPFDYWGQGTLVTVSSASTSGPSDIQMTQSPSSLSASVGDRVTITCRASRPIGTTLSWYQQKPGKAPKLLIWFGSRLQSGVPSRFSGSGSGTDFTLTISSLQPEDFATYYCAQAGTHPTTFGQGTKVEIKR
notes: anti-TNFR1 dAb / AlbudAb in-line fusion
B7: DMS0186 (bispecific antibody)
chain: EVQLLESGGGLVQPGGSLRLSCAASGFTFVKYSMGWVRQAPGKGPEWVSQISNTGDRTYYADSVKGRFTISRDNSKNTLYLQMNSLRAEDTAVYYCAIYTGRWEPFDYWGQGTLVTVSSASTDIQMTQSPSSLSASVGDRVTITCRASRPIGTMLSWYQQKPGKAPKLLILFGSRLQSGVPSRFSGSGSGTDFTLTISSLQPEDFATYYCAQAGTHPTTFGQGTKVEIKRAAAEQKLISEEDLN
notes: as for B6
B8: DMS0188 (bispecific antibody)
chain: EVQLLESGGGLVQPGGSLRLSCAASGFTFVKYSMGWVRQAPGKGPEWVSQISNTGDRTYYADSVKGRFTISRDNSKNTLYLQMNSLRAEDTAVYYCAIYTGRWEPFDYWGQGTLVTVSSASTSGPSDIQMTQSPSSLSASVGDRVTITCRASRPIGTMLSWYQQKPGKAPKLLILFGSRLQSGVPSRFSGSGSGTDFTLTISSLQPEDFATYYCAQAGTHPTTFGQGTKVEIKRAAAEQKLISEEDLN
notes: as for B6

biological target: T1, human TNFR1 (recombinant, R&D Systems …); experiment: BIAcore, human TNFR1 on SA chip
Description: (§1) BIAcore was done to determine the association and dissociation rates of the different dAbs and in that way establish their binding affinity for both human and mouse TNFR1. Experiments were done using biotinylated TNFR1 (R&D Systems), of the respective species, coupled to streptavidin-coated BIAcore chips followed by injection of a concentration range of the dAbs.

| Binder | Kd | koff | kon |
| --- | --- | --- | --- |
| B1 | 0.35 nM | 8.4e-05 s⁻¹ | 250000 M⁻¹ s⁻¹ |
| B2 | 0.18 nM | 4.3e-05 s⁻¹ | 240000 M⁻¹ s⁻¹ |
| B3 | 0.34 nM | 8.8e-05 s⁻¹ | 260000 M⁻¹ s⁻¹ |
| B4 | 0.21 nM | 5.2e-05 s⁻¹ | 250000 M⁻¹ s⁻¹ |
| B5 | 0.15 nM | 3.8e-05 s⁻¹ | 250000 M⁻¹ s⁻¹ |

biological target: T6, human serum albumin (HSA, Sigma-Aldrich) (human, UniProt P02768 25-609); experiment: BIAcore, HSA on CM5 chip
T6 construct: also called human albumin
Description: FIG. 23. BIAcore analysis for binding of DOM0100-AlbudAb in-line fusions to human serum albumin (HSA). HSA (Sigma-Aldrich) was coated on a BIAcore CM5 chip using EDC/NHS chemistry according to manufacturer's instructions. Subsequently, the DMS constructs, each consisting N-terminally to C-terminally of an anti-TNFR1 dAb-Linker-AlbudAb and identified in Table 6, were injected at 1 μM over the HSA surface and binding was monitored. […] The corresponding BIAcore trace for each DMS clone is indicated with an arrow.

T6 sequence (P02768 25-609 limits assumed): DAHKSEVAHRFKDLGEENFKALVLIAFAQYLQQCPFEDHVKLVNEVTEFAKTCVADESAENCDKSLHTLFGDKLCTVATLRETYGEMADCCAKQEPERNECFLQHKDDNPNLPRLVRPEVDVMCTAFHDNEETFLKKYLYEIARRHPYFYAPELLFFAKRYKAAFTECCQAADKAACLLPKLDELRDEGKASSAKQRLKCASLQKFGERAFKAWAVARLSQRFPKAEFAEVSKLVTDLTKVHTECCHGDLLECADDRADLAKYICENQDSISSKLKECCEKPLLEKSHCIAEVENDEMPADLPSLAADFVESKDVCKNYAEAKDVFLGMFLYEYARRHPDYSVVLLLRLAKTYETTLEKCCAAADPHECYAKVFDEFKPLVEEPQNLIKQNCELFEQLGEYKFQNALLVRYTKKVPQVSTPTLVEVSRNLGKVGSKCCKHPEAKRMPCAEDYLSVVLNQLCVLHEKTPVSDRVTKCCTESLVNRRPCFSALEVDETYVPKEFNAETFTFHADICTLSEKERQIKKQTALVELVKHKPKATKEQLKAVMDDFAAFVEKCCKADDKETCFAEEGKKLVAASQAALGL

| Binder | koff |
| --- | --- |
| B6 | 0.16 s⁻¹ |
| B7 | 0.12 s⁻¹ |
| B8 | 0.12 s⁻¹ |

biological target: T2, human TNFR1 on MRC-5 cells; experiment: cell-based or functional assay

| Binder | ND50 (MRC5) |
| --- | --- |
| B6 | 19 nM |
| B7 | 20 nM |
| B8 | 17 nM |

biological target: T2, human TNFR1 on MRC-5 cells; experiment: cell-based or functional assay; remark: another data set of the same source

| Binder | MRC5 (ND50 in nM) |
| --- | --- |
| B1 | 2.7 nM |

biological target: T1, human TNFR1 (recombinant, R&D Systems …); experiment: BIAcore T100, biotinylated human TNFR1 on chip
Description: Furthermore, the affinity and potency of the purified fusion molecules were determined using a BIAcore T100 and the MRC5 cell assay, respectively. The BIAcore T100 is a highly sensitive BIAcore version ideally suited for determination of high affinity binders (Papalia et al., Anal Biochem. 359, p 112 (2006)). Biotinylated, human TNFR1 was coated on the chip and each of the twelve AlbudAb fusions were passed over this surface at four different concentrations (2, 10, 50 and 250 nM). […] This improvement is observed regardless of the AlbudAb used for pairing and largest for the pairings with DOM7h-14-18. A second experiment used to establish if the different pairings affected the functional activity of the anti-TNFR1 dAb was the MRC5 cell assay (Table 8). A more marked difference between the pairings is observed in the MRC5 assay, in which the best potencies are observed in pairings with DOM7h-11-3 and DOM7h-11-12 while pairings with DOM7h-14-10 (DMS0117) lead to significant decreases in potency.

| Binder | Kd | koff | kon |
| --- | --- | --- | --- |
| B1 | 0.53 nM | 0.00011 s⁻¹ | 200000 M⁻¹ s⁻¹ |

biological target: T7, mouse serum albumin (MSA, Sigma-Aldrich) (mouse, UniProt P07724 25-608); experiment: BIAcore, MSA on CM5 chip
T7 construct: also called mouse albumin
Description: FIG. 22. BIAcore analysis for binding of DOM0100-AlbudAb in-line fusions to mouse serum albumin (MSA). MSA (Sigma-Aldrich) was coated on a BIAcore CM5 chip using EDC/NHS chemistry according to manufacturer's instructions. Subsequently, the DMS constructs, each consisting N-terminally to C-terminally of an anti-TNFR1 dAb-Linker-AlbudAb and identified in Table 6, were injected at 1 μM over the MSA surface and binding was monitored. […] The corresponding BIAcore trace for each DMS clone is indicated with an arrow.
After expression and purification, all constructs were tested on the BIAcore for binding to both mouse and human serum albumin. The off-rates were determined and used to discriminate between the AlbudAbs for their suitability in prolonging the half-life of the fusion molecule. Whereas the linker had little influence on the affinity of the AlbudAb for albumin, a significant difference existed between the dAbs and their albumin affinity. The best AlbudAb for mouse binding was DOM7h-11-15 followed by DOM7m-16 and DOM7h-11-12 (FIG. 22).

| Binder | koff |
| --- | --- |
| B6 | 0.72 s⁻¹ |
| B7 | 0.08 s⁻¹ |
| B8 | 0.08 s⁻¹ |

biological target: T3, Cynomologus monkey TNFR1 on CYNOM-K1 …; experiment: cell-based or functional assay

| Binder | Cynomologus CYNOM-K1 ND50 |
| --- | --- |
| B1 | 2.3 nM |
| B2 | 1.6 nM |
| B3 | 1.7 nM |
| B4 | 1.5 nM |
| B5 | 1.2 nM |

biological target: T2, human TNFR1 on MRC-5 cells; experiment: cell-based or functional assay; remark: another data set of the same source

| Binder | Human MRC5 ND50 |
| --- | --- |
| B1 | 2.7 nM |
| B2 | 2.1 nM |
| B3 | 2.1 nM |
| B4 | 1.8 nM |
| B5 | 1.4 nM |

biological target: T4, mouse TNFR1 on L929 cells; experiment: cell-based or functional assay

| Binder | Mouse L929 ND50 |
| --- | --- |
| B1 | 46 nM |
| B2 | 67 nM |
| B3 | 110 nM |
| B4 | 47 nM |
| B5 | 23 nM |

biological target: T5, mouse TNFR1 (recombinant, R&D Systems …); experiment: BIAcore, mouse TNFR1 on SA chip
Description: as §1

| Binder | Kd | koff | kon |
| --- | --- | --- | --- |
| B1 | 6.9 nM | 0.00068 s⁻¹ | 100000 M⁻¹ s⁻¹ |
| B2 | 3.7 nM | 0.00033 s⁻¹ | 110000 M⁻¹ s⁻¹ |
| B3 | 5.2 nM | 0.00075 s⁻¹ | 140000 M⁻¹ s⁻¹ |
| B4 | 3.8 nM | 0.00045 s⁻¹ | 110000 M⁻¹ s⁻¹ |
| B5 | 2.4 nM | 0.0003 s⁻¹ | 130000 M⁻¹ s⁻¹ |
